# T1: mouse c-CDCP1 (recombinant cleaved mouse CDCP1) (mouse, UniProt Q5U462 30-368; Q5U462 369-666, limits assumed)
# T1 construct: Mouse antigens made were c-CDCP1-Fc (Cut 1) and (Cut 2); also called mouse cleaved CDCP1; cleaved mCDCP1
# T1 sequence 1: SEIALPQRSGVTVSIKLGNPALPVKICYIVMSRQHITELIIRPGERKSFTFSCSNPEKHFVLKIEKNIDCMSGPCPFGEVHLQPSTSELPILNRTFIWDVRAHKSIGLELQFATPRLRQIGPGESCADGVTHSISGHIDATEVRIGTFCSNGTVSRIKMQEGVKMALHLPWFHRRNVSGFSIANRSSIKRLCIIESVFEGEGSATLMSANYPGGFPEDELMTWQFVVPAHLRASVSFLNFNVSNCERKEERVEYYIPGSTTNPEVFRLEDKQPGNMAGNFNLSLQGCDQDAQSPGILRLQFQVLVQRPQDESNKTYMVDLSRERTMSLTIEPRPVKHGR
# T1 sequence 2: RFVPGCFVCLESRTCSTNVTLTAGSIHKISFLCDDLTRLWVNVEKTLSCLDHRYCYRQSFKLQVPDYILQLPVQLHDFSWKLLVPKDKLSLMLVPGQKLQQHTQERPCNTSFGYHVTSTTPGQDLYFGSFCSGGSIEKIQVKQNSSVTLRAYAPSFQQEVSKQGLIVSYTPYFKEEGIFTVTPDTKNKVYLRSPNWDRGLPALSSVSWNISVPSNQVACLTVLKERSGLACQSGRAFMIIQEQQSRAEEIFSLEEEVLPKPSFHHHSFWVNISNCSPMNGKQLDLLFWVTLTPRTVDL
# T2: mouse c-CDCP1 on Fc1245 cells (mouse) (UniProt Q5U462)
# T2 sequence 1: T1 sequence 1
# T2 sequence 2: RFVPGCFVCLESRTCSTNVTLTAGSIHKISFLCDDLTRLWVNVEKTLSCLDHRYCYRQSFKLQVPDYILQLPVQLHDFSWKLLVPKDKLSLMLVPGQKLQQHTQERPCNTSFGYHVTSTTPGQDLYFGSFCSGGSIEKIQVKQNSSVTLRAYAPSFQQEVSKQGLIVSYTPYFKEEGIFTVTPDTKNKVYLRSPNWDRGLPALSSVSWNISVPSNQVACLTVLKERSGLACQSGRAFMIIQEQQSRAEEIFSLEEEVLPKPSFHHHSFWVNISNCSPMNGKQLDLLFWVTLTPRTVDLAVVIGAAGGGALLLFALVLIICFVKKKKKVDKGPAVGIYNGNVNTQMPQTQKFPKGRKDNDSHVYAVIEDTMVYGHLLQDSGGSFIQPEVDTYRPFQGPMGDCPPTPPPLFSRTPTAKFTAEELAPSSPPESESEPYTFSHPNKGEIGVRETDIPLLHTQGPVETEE
# T3: c-CDCP1-Fc (Cut 2) (human, UniProt Q9H5V8 30-368; Q9H5V8 369-667)
# T3 construct: Co-transfection of NTF and CTF-Fc plasmids; not shown: Fc domain
# T3 sequence 1: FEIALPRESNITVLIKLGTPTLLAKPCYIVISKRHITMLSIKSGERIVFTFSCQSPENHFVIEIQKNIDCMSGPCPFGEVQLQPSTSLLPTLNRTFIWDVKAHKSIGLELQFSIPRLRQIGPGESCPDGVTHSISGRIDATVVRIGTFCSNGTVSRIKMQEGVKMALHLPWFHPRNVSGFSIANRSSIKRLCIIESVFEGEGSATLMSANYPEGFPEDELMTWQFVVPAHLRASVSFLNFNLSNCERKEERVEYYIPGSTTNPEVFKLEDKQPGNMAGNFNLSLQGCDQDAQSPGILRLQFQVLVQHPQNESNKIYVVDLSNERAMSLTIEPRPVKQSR
# T3 sequence 2: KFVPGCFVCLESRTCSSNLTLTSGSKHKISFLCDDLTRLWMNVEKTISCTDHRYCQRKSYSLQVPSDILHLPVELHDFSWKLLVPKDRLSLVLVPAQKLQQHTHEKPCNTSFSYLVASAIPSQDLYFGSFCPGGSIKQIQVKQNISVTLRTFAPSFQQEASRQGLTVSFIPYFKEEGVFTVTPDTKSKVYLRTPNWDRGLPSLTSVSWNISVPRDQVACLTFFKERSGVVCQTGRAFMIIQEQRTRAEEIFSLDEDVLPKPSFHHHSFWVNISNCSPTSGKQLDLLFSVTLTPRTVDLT
# T4: c-CDCP1 Cut 1 N-terminal fragment (NTF) (human, UniProt Q9H5V8 30-365)
# T4 construct: also called NTF (Cut 1)
# T4 sequence: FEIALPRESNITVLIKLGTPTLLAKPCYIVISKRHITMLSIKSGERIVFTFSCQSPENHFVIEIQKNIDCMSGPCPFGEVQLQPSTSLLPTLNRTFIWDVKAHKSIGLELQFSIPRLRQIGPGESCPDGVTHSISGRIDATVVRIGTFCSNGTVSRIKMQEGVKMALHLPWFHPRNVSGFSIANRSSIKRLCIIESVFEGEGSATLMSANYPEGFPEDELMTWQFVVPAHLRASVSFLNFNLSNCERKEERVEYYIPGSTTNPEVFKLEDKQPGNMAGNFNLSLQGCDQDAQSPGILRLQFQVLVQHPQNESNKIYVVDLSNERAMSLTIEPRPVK
# T5: c-CDCP1 Cut 2 N-terminal fragment (NTF) (human, UniProt Q9H5V8 30-368)
# T5 construct: also called NTF (Cut 2)
# T5 sequence: T3 sequence 1
# T6: c-CDCP1 Cut 3 N-terminal fragment (NTF) (human, UniProt Q9H5V8 30-369)
# T6 construct: also called NTF (Cut 3)
# T6 sequence: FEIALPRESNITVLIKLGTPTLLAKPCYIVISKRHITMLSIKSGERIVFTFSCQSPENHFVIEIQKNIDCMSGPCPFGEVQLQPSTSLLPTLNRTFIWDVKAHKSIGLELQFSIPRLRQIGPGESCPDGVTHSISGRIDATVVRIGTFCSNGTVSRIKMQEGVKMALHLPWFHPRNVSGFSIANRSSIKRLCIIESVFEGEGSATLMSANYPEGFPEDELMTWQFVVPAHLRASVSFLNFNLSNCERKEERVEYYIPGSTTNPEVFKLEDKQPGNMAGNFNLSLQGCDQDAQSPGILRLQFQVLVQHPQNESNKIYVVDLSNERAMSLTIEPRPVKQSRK
# B1: IgG 58 (antibody, V domains shown)
# VH: EVQLVESGGGLVQPGGSLRLSCAASGFNVYSYSIHWVRQAPGKGLEWVASISSSSGSTSYADSVKGRFTISADTSKNTAYLQMNSLRAEDTAVYYCARYYWDPWQYASYSYLAFDYWGQGTLVTVSS
# VL: MTQSPSSLSASVGDRVTITCRASQSVSSAVAWYQQKPGKAPKLLIYSASSLYSGVPSRFSGSRSGTDFTLTISSLQPEDFATYYCQQTYSGPITFGQGTKVEIKR
# notes: Mouse cleaved-CDCP1-specific antibody; also called Ab58; IgG 0058
# B2: IgG102 (antibody, V domains shown)
# VH: EVQLVESGGGLVQPGGSLRLSCAASGFDFSSYSIHWVRQAPGKGLEWVASSYPYSGSTYYADSVKGRFTISADTSKNTAYLQMNSLRAEDTAVYYCARQSHSYYSHTWWVSYGMDYWGQGTLVTVSS
# VL: DIQMTQSPSSLSASVGDRVTITCRASQSVSSAVAWYQQKPGKAPKLLIYSASSLYSGVPSRFSGSRSGTDFTLTISSLQPEDFATYYCQQSGQRPITFGQGTKVEIK
# B3: c-CDCP1 Cut 1 C-terminal fragment (CTF) of the ectodomain (receptor)
# chain: QSRKFVPGCFVCLESRTCSSNLTLTSGSKHKISFLCDDLTRLWMNVEKTISCTDHRYCQRKSYSLQVPSDILHLPVELHDFSWKLLVPKDRLSLVLVPAQKLQQHTHEKPCNTSFSYLVASAIPSQDLYFGSFCPGGSIKQIQVKQNISVTLRTFAPSFQQEASRQGLTVSFIPYFKEEGVFTVTPDTKSKVYLRTPNWDRGLPSLTSVSWNISVPRDQVACLTFFKERSGVVCQTGRAFMIIQEQRTRAEEIFSLDEDVLPKPSFHHHSFWVNISNCSPTSGKQLDLLFSVTLTPRTVDLT
# notes: Tag for Ni-NTA purification not described; also called CTF (Cut 1)
# B4: c-CDCP1 Cut 2 C-terminal fragment (CTF) of the ectodomain (receptor)
# chain: T3 sequence 2
# notes: Tag for Ni-NTA purification not described; also called CTF (Cut 2)
# B5: c-CDCP1 Cut 3 C-terminal fragment (CTF) of the ectodomain (receptor)
# chain: FVPGCFVCLESRTCSSNLTLTSGSKHKISFLCDDLTRLWMNVEKTISCTDHRYCQRKSYSLQVPSDILHLPVELHDFSWKLLVPKDRLSLVLVPAQKLQQHTHEKPCNTSFSYLVASAIPSQDLYFGSFCPGGSIKQIQVKQNISVTLRTFAPSFQQEASRQGLTVSFIPYFKEEGVFTVTPDTKSKVYLRTPNWDRGLPSLTSVSWNISVPRDQVACLTFFKERSGVVCQTGRAFMIIQEQRTRAEEIFSLDEDVLPKPSFHHHSFWVNISNCSPTSGKQLDLLFSVTLTPRTVDLT
# notes: Tag for Ni-NTA purification not described; also called CTF (Cut 3)
# Key:
# [1] = target: T1, mouse c-CDCP1 (recombinant cleaved …); test: BLI (Octet), table of binding affinities to mCDCP1
# [2] = target: T2, mouse c-CDCP1 on Fc1245 cells (mouse); test: flow cytometry on Fc1245 c-CDCP1 cells (FIG. 9B); FIG. 9B
# c-CDCP1-Fc (Cut 2) = target: T3, c-CDCP1-Fc (Cut 2); test: BLI (Octet RED384) on c-CDCP1-Fc (Cut2); antibody concentration not given
# Protocol: BLI experiments were performed using an Octet RED384 instrument (ForteBio). Biotinylated proteins were immobilized on a streptavidin (SA) biosensor and His-tagged proteins were immobilized on a Ni-NTA biosensor. Different concentrations of analyte in PBS pH 7.4+0.05% Tween-20+0.2% BSA (PBSTB) were used as analyte. Affinities (KDS) were calculated from a global fit (1:1) of the data using the Octet RED384 software.
# Furthermore, variants of CL03 were evaluated for binding to c-CDCP1-Fc (Cut2) by BLI assays using an Octet RED384 instrument (ForteBio) (FIG. 16A) using a procedure as generally described in Example 1. The variants also were evaluated by SEC-based analysis (FIG. 16B) as generally described in Example 1. The variants evaluated by BLI assays and SEC-based analysis included the variants referred to as IgG87, IgG89, IgG94, IgG97, IgG101 (CL03 IgG H1-NtoD H3-MtoA), and IgG102.
# [3] = target: T4, c-CDCP1 Cut 1 N-terminal fragment (NTF); test: co-transfection of NTF and CTF plasmids (Cut 1), Ni-NTA co-purification
# Source text: (§1) In the present example, CDCP1 antigen with endogenous cut sites was generated. Generation of the CDCP1 antigen proceeded by co-transfection of the two fragments on separate plasmids. One set of plasmids encoding the NTF of CDCP1, ending after the PI residue of the 3 different cut sites, was designed; and a second set of plasmids encoding the C-terminal ectodomain of CDCP1 starting at the P1′ residue of the 3 different cut sites (c-CDCP1 Cut 1, Cut 2, Cut 3), was designed (FIG. 3A). Uncleaved CDCP1 ectodomain was generated with a single plasmid encoding the entire ectodomain (fl-CDCP1). Following co-transfection of pairs of NTF and CTF plasmids, an intact cleaved CDCP1 complex was purified by Ni-NTA affinity chromatography for all of the NTF+CTF cut variants (FIG. 3B). In parallel, fl-CDCP1 and c-CDCP1 ectodomains fused to an Fc domain were generated for use in phage selection, using the same co-transfection strategy (FIG. 3H-FIG. 3L). Three pairs of NTF and CTF-Fc plasmids were made that ends or starts at the 3 different cut sites of cleaved CDCP1. An SDS-PAGE gel of fl-CDCP1-Fc and c-CDCP1-Fc (Cut 1, Cut 2, Cut 3) was run (FIG. 3I).
# [4] = target: T5, c-CDCP1 Cut 2 N-terminal fragment (NTF); test: co-transfection of NTF and CTF plasmids (Cut 2), Ni-NTA co-purification
# Source text: as §1
# [5] = target: T6, c-CDCP1 Cut 3 N-terminal fragment (NTF); test: co-transfection of NTF and CTF plasmids (Cut 3), Ni-NTA co-purification
# Source text: as §1
binder,measurement,setting,value
B1,Kd,[1],0.8 nM
same,EC50,[2],6.9 nM
B2,binding result,c-CDCP1-Fc (Cut 2),binds
B3,binding result,[3],binds
B4,binding result,[4],binds
B5,binding result,[5],binds

# — patent US20240376224A1 (University of California, published 2024)
